Measured values taken from patent US11332546B2, “Protease inhibitory antibodies and methods of use thereof” (The Regents of The University of California, priority 2019, dated 2022).
Read-outs that look alike come from different tables or passages of the source.

T1: MMP-1 (Homo sapiens, UniProt P03956)
T1 construct: purchased AnaSpec
T1 sequence (P03956 100-469): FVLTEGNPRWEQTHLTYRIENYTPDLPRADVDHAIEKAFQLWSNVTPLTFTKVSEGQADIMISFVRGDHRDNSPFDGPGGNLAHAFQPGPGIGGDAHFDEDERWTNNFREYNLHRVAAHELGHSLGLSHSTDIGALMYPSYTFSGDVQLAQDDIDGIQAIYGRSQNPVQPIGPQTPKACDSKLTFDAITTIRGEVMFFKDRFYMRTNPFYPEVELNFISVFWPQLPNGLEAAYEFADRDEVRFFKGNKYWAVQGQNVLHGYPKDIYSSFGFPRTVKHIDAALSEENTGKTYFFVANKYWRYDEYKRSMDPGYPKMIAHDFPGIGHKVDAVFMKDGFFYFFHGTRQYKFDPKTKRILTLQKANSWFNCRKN

T2: MMP-7 (Homo sapiens, UniProt P09237)
T2 construct: purchased AnaSpec
T2 sequence (P09237 95-267): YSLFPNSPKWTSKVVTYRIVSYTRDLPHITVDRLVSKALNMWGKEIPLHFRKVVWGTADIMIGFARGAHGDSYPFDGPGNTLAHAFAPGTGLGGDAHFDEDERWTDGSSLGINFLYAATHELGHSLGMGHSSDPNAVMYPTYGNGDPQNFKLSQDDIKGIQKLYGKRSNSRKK

B1: Fab LH6: anti-MMP-12 antibody clone; VL SEQ ID NO:118, VH SEQ ID NO:120, CDR-H3 SEQ ID NO:123 (antibody, V domains shown)
VH: EVQLVESGGGLVQPGGSLRLSCAASGFNLSYSYMHWVRQAPGKGLEWVASIYPSYGSTYYADSVKGRFTISADTSKNTAYLQMNSLRAEDTAVYYCARDLEESLPKRARTAVSKELESVPYVMDYWGQGTLVTVSSAS
VL: DIQMTQSPSSLSASVGDRVTITCRASQSVSSAVAWYQQKPGKAPKLLIYSASSLYSGVPSRFSGSRSGTDFTLTISSLQPEDFATYYCQQSSHYASPPITFGQGTKVEIKR
B2: Fab LG4: anti-MMP-12 antibody clone; VL SEQ ID NO:112, VH SEQ ID NO:114, CDR-H3 SEQ ID NO:117 (antibody, V domains shown)
VH: EVQLVESGGGLVQPGGSLRLSCAASGFNLYYSYMHWVRQAPGKGLEWVASISSYYGYTSYADSVKGRFTISADTSKNTAYLQMNSLRAEDTAVYYCARSPIVYYELFMFIDMGAQGWKYGMDYWGQGTLVTVSSAS
VL: DIQMTQSPSSLSASVGDRVTITCRASQSVSSAVAWYQQKPGKAPKLLIYSASSLYSGVPSRFSGSRSGTDFTLTISSLQPEDFATYYCQQTFYPFTFGQGTKVEIKR

Key:
[1] = target: T3, cdMMP-12 mutant D4 (Homo sapiens, UniProt P39900, A167E/A173P/A252Q/H206S/I245T/K233R/M156E/N119Q/N126H/R135E/T215V/V161I/Y113D/Y132K); experiment: FRET peptide inhibition assay, cdMMP-12 D4; assay type: biochemical; details: cdMMP-12 D4, FRET peptide, 31-500 nM Fab
T3 construct: hexahistidine (C); made in house; host or cells: E. coli BL21, pET32b (cytoplasmic, soluble fraction)
Method: (§1) FRET peptide inhibition assays In 96-well assay plates (Corning), 60/250/350/10/10/30 nM of (cd)MMP-1/-7/-9/-12 D4/-12 wt/-14 were preincubated with 1 nM-1 μM purified Fabs for 30 min at room temperature then 1 μM substrate M-2350 (Bachem) was added. Generated fluorescent signals (λEx=328 nm, λEm=393 nm) were monitored at 37° C. to measure the initial velocities. To calculate inhibition constants (KIs), data were fit with the equations for slow tight-binding inhibitors. The inhibition type of the Fabs was determined using the initial velocities of cdMMP-12 D4 as a function of substrate concentration (250-2000 nM) at various Fab concentrations (31-500 nM). The values of Vmax and Km were derived from linearization in accordance with the Lineweaver-Burk equation.

[2] = target: T4, cdMMP-12 wt (Homo sapiens, UniProt P39900); experiment: FRET peptide inhibition assay, cdMMP-12 wt; assay type: biochemical; details: toward cdMMP-12 wild type
T4 construct: hexahistidine (C); made in house; host or cells: E. coli BL21 (pET32b, cytoplasmic)
Method: as §1

[3] = target: T4, cdMMP-12 wt; experiment: Fibronectin proteolysis inhibition, cdMMP-12 wt (western blot); assay type: biochemical; details: for Fibronectin remaining after cdMMP-12 wt hydrolysis: 6 μM Fab, 350 nM wt cdMMP-12, 200 nM fibronectin, 37° C.; for Inhibition Fibronectin IC50: toward cdMMP-12 wild type, 200 nM enzyme, 200 nM fibronectin
Method: Inhibition tests with macromolecular substrates 10 μg/mL FITC-conjugated elastin (AnaSpec) was incubated with 7 nM cdMMP-12 D4/wt and 2-2000 nM purified Fab in 50 mM Tris-HCl, 150 mM NaCl, 5 mM CaCl2), 100 μM ZnCl2 pH 7.5. Generated fluorescent signals were measured at 12 h with λEx of 490 nm and λEm of 520 nm. […] The samples were separated on 5% non-reducing SDS-PAGE and analyzed by western blotting with anti-Fibronectin antibody (Abcam) and chemiluminescent substrate (Thermo Scientific). […] Assays without cdMMP-12s or Fabs were performed as controls.

[4] = target: T1, MMP-1; experiment: FRET peptide inhibition assay, MMP-1; assay type: biochemical; details: listed as LH6
Method: as §1

[5] = target: T2, MMP-7; experiment: FRET peptide inhibition assay, MMP-7; assay type: biochemical; details: listed as LH6
Method: as §1

[6] = test system: cdMMP-9; experiment: FRET peptide inhibition assay, cdMMP-9 (Example 2); assay type: biochemical
Method: as §1

[7] = target: cdMMP-9; experiment: Bio-layer interferometry on cdMMP-9; assay type: binding; details: for Kd: read-out: KD toward cdMMP-9
[8] = target: T3, cdMMP-12 mutant D4; experiment: Proteolytic stability of Fabs with cdMMP-12 D4; assay type: physicochemical; details: 2 μM Fab, 2 μM cdMMP-12 D4, 4 h, 37° C.
Method: (§2) Proteolytic stability tests 2 μM purified Fabs were incubated with 2 μM cdMMP-12 wt/D4 in 50 mM HEPES, 150 mM NaCl pH 7.5 at 37° C. for 4 h. Samples were analyzed by using 12% non-reducing SDS-PAGE and stained with Coomassie blue. Densitometric interpretation was conducted using a ChemiDoc imager (Bio-Rad).

[9] = target: T4, cdMMP-12 wt; experiment: Proteolytic stability of Fabs with cdMMP-12 wt; assay type: physicochemical; details: 2 μM Fab, 2 μM cdMMP-12 wt, 4 h, 37° C.
Method: as §2

[10] = target: T5, cdMMP-14 (Homo sapiens, UniProt P50281); experiment: FRET peptide inhibition assay, cdMMP-14 (Example 2); assay type: biochemical; design: human MMP-14 (residue 114-320); hexahistidine (C); made in house; host or cells: E. coli periplasm
Method: as §1

[11] = target: T5, cdMMP-14; experiment: Bio-layer interferometry on cdMMP-14; assay type: binding; design: human MMP-14 (residue 114-320); hexahistidine (C); made in house; host or cells: E. coli periplasm
[12] = target: T4, cdMMP-12 wt; experiment: Inhibition of proteolysis of modified TEM-1 ([…]) by cdMMP-12 wt; assay type: biochemical; details: 10 μM Fab, 700 nM cdMMP-12 wt, 250 nM modified TEM-1, 4 h
Method: Inhibition tests with macromolecular substrates 10 μg/mL FITC-conjugated elastin (AnaSpec) was incubated with 7 nM cdMMP-12 D4/wt and 2-2000 nM purified Fab in 50 mM Tris-HCl, 150 mM NaCl, 5 mM CaCl2), 100 μM ZnCl2 pH 7.5. Generated fluorescent signals were measured at 12 h with λEx of 490 nm and λEm of 520 nm. For inhibition assays on fibronectin, 200 nM fibronectin (Corning) was incubated with 200-350 nM cdMMP-12 wt and 2 μM GM6001 or 0.1-6 μM Fabs in 50 mM HEPES, 150 mM NaCl pH 7.5 at 37° C. for 2-4 h. The samples were separated on 5% non-reducing SDS-PAGE and analyzed by western blotting with anti-Fibronectin antibody (Abcam) and chemiluminescent substrate (Thermo Scientific). For inhibition assays on modified TEM-1 carrying cleavable sequence ([…] (SEQ ID NO:134)) and a N-terminal HA tag, 250 nM modified TEM-1 was incubated with 700 nM cdMMP-12 wt and 10 μM Fabs in 50 mM HEPES, 150 mM NaCl pH 7.5 at 37° C. for 4 h. The samples were separated on 12% non-reducing SDS-PAGE, and the modified TEM-1 was visualized by western blotting using anti-HA antibody (Invitrogen) and chemiluminescent substrate. Assays without cdMMP-12s or Fabs were performed as controls.

T4 sequence (P39900 106-263): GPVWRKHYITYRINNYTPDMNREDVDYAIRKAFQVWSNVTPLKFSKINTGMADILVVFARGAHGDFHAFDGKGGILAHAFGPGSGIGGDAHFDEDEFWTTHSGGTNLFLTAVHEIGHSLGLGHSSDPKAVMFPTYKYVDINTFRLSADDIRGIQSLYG
T3 sequence (P39900 106-263 Y113D/N119Q/N126H/Y132K/R135E/M156E/V161I/A167E/A173P/H206S/T215V/K233R/I245T/A252Q): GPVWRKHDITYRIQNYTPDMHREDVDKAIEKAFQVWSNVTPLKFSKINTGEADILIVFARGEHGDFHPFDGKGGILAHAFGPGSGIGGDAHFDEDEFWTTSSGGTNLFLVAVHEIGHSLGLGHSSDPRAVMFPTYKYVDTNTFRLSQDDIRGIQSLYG
Chain of cdMMP-9 (P14780 with tags, fused parts or gaps DEL216-390 limits assumed): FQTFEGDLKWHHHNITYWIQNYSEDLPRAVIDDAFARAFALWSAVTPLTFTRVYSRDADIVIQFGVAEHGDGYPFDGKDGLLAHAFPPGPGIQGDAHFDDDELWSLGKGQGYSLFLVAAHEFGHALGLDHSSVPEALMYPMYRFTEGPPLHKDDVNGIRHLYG

| Molecule | Type of inhibition (Lineweaver-Burk) [1] | Inhibition FRET peptide ([2]; listed as LH6) | Fibronectin remaining after cdMMP-12 wt hydrolysis [3] | Inhibition Fibronectin IC50 [3] | Inhibition of MMP-1 (selectivity) [4] | Inhibition of MMP-7 (selectivity) [5] | K1 fold, cdMMP-9 compared with cdMMP-12 mutant D4 [6] | Ki ([6]; FRET peptide, read-out: K1 toward cdMMP-9) | KD fold, cdMMP-9 compared with cdMMP-12 wt [7] | Kd [7] | Degradation of Fab by cdMMP-12 D4 [8] | Fab remained intact after exposure to cdMMP-12 wt [9] | K1 fold, cdMMP-14 compared with cdMMP-12 mutant D4 [10] | KD fold, cdMMP-14 compared with cdMMP-12 wt [11] | Inhibition FRET peptide ([2]; listed as LG4) | Kd ([7]; listed as LG4) | Inhibition of modified TEM-1 (PLGLEEAK) proteolysis [12] | Kd ([11]; listed as LG4, read-out: KD toward cdMMP-14) |
| --- | --- | --- | --- | --- | --- | --- | --- | --- | --- | --- | --- | --- | --- | --- | --- | --- | --- | --- |
| B1 | substrate competitive manner | non- | significant amounts of fibronectin remained | Inhib. | did not inhibit and non- | did not inhibit and non- | (16-fold) | 1500 nM | (2.2-fold), | 950 nM | no significant degradation | 56% | (52-fold) | (1.1-fold), |  |  |  |  |
| B2 | substrate competitive manner |  | significant amounts of fibronectin remained | Inhib. |  |  |  |  |  |  | no significant degradation | 54% |  |  | non- | 720 nM | significant inhibition | ~700 nM |
